Measurements as given in patent US20210269480A1 (published 2021).
*1 amine or outer side, *2 acyl side, *3 side chain or, on linkers, in order; H or OH if unused. Bridges are numbered along the chain shown (N, C = ends). Primed or numbered codes have the meaning given here. Where no end group is shown, it is not given here. [ ]: non-standard residue; d: D form. TATA = O=C(CC[*:1])N1CN(C(=O)CC[*:2])CN(C(=O)CC[*:3])C1; 1Nal = N[C@@H](Cc1cccc2ccccc12)C(=O)O; PABC = O=C(OCc1ccc(N[*:1])cc1)[*:2]; Glutaryl = O=C(CCCC(=O)[*:2])[*:1]; Cya = N[C@@H](CS(=O)(=O)O)C(=O)O; Hyp = O=C(O)[C@@H]1C[C@@H](O)CN1; dCya = N[C@H](CS(=O)(=O)O)C(=O)O; hArg = N=C(N)NCCCC[C@H](N)C(=O)O; Cit = NC(=O)NCCC[C@H](N)C(=O)O; MMAE = monomethyl auristatin E; PABC′ = p-aminobenzylcarbamate; βAla = NCCC(=O)O; Sar = CNCC(=O)O

Experiments:
[1] = target: Nectin-4 on the surface of tumour cell lines (UniProt Q96NY8); assay: flow cytometry, PE antibody staining of NCI-526 cells
[2] = target: Nectin-4 on the surface of tumour cell lines (UniProt Q96NY8); assay: flow cytometry, PE antibody staining of NCI-H292 cells
[3] = target: Nectin-4 on the surface of tumour cell lines (UniProt Q96NY8); assay: as above; remark: listed apart in the source
[4] = target: Nectin-4 on the surface of tumour cell lines (UniProt Q96NY8); assay: flow cytometry, PE antibody staining of MDA-MB-468 cells
[5] = target: Nectin-4 on the surface of tumour cell lines (UniProt Q96NY8); assay: flow cytometry, PE antibody staining of NCI-H322 cells
[6] = target: Nectin-4 on the surface of tumour cell lines (UniProt Q96NY8); assay: flow cytometry, PE antibody staining of HT-29 cells
[7] = target: Nectin-4 on the surface of tumour cell lines (UniProt Q96NY8); assay: flow cytometry, PE antibody staining of HCT-116 cells
[8] = target: Nectin-4 on the surface of tumour cell lines (UniProt Q96NY8); assay: flow cytometry, PE antibody staining of Panc02.13 cells
[9] = target: Nectin-4 on the surface of tumour cell lines (UniProt Q96NY8); assay: flow cytometry, PE antibody staining of HT1376 cells
[10] = target: Nectin-4 on the surface of tumour cell lines (UniProt Q96NY8); assay: flow cytometry, PE antibody staining of T-47D cells
[11] = target: Nectin-4 on the surface of tumour cell lines (UniProt Q96NY8); assay: flow cytometry, PE antibody staining of NCI-H358 cells
[12] = target: Nectin-4 on the surface of tumour cell lines (UniProt Q96NY8); assay: flow cytometry, PE antibody staining of NCI-H526 cells
[13] = target: Nectin-4 on the surface of tumour cell lines (UniProt Q96NY8); assay: flow cytometry, PE antibody staining of A549 cells
[14] = target: Nectin-4 on the surface of tumour cell lines (UniProt Q96NY8); assay: flow cytometry, PE antibody staining of HT1080 cells
[15] = target: Nectin-4 on the surface of tumour cell lines (UniProt Q96NY8); assay: flow cytometry, PE antibody staining of MDA-MB-468 cells; remark: listed apart in the source
[16] = target: Nectin-4 on the surface of tumour cell lines (UniProt Q96NY8); assay: flow cytometry, PE isotype control on HT-29 cells
[17] = target: Nectin-4 on the surface of tumour cell lines (UniProt Q96NY8); assay: flow cytometry, PE isotype control on HT1080 cells
[18] = target: Nectin-4 on the surface of tumour cell lines (UniProt Q96NY8); assay: flow cytometry, PE isotype control on T-47D cells
[19] = target: Nectin-4 on the surface of tumour cell lines (UniProt Q96NY8); assay: flow cytometry, PE isotype control on NCI-H322 cells
[20] = target: Nectin-4 on the surface of tumour cell lines (UniProt Q96NY8); assay: flow cytometry, PE isotype control on MDA-MB-468 cells
[21] = target: Nectin-4 on the surface of tumour cell lines (UniProt Q96NY8); assay: flow cytometry, PE isotype control on NCI-H526 cells
[22] = target: Nectin-4 on the surface of tumour cell lines (UniProt Q96NY8); assay: flow cytometry, PE isotype control on NCI-H292 cells
[23] = target: Nectin-4 on the surface of tumour cell lines (UniProt Q96NY8); assay: flow cytometry, PE isotype control on NCI-526 cells
[24] = target: Nectin-4 on the surface of tumour cell lines (UniProt Q96NY8); assay: flow cytometry, PE isotype control on A549 cells
[25] = target: Nectin-4 on the surface of tumour cell lines (UniProt Q96NY8); assay: flow cytometry, PE isotype control on NCI-H358 cells
[26] = target: Nectin-4 on the surface of tumour cell lines (UniProt Q96NY8); assay: flow cytometry, PE isotype control on Panc02.13 cells
[27] = target: Nectin-4 on the surface of tumour cell lines (UniProt Q96NY8); assay: flow cytometry, PE isotype control on HCT-116 cells
[28] = target: Nectin-4 on the surface of tumour cell lines (UniProt Q96NY8); assay: flow cytometry, PE isotype control on HT1376 cells
[29] = target: Nectin-4 on the surface of tumour cell lines (UniProt Q96NY8); assay: flow cytometry, PE isotype control on NCI-H292 cells; remark: listed apart in the source
[30] = target: Nectin-4 on the surface of tumour cell lines (UniProt Q96NY8); assay: flow cytometry, PE isotype control on MDA-MB-468 cells; remark: listed apart in the source
[31] = target: Human Nectin-4 (residues Gly32-Ser349) with C-terminal FLAG tag, biotinylated (human) (UniProt Q96NY8); assay: SPR (Biacore), biotinylated human Nectin-4 on streptavidin chip
[32] = target: T1, Human Nectin-4 (residues Gly32-Ser349) with C-terminal FLAG tag, biotinylated (human, UniProt Q96NY8 32-349, randomly biotinylated with EZ-Link Sulfo-NHS-LC-LC-Biotin); assay: as above
T1 construct: range 32-349; Captured through biotin on a streptavidin CM5 chip in the SPR assay; also called PVRL4; not shown: C-terminal FLAG tag
T1 sequence (looked up): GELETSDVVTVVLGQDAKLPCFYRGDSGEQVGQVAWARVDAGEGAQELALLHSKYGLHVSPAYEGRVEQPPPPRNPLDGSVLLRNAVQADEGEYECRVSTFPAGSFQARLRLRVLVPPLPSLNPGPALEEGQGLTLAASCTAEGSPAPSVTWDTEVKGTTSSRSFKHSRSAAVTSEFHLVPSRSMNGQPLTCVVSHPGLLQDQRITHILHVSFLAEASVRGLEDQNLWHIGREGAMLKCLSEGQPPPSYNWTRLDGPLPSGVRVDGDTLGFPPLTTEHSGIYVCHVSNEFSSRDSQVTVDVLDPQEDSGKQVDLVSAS

## PE anti-Nectin-4 antibody (R&D, catalog FAB2659P)
[1]
  MFI-Panel: 12.1
  Nectin-4 (percent positive cells): 1.22%
[2]
  MFI-Panel: 729
  Nectin-4 (percent positive cells): 97.9%
[3]
  MFI-Panel: 149
  Nectin-4 (percent positive cells): 71.1%
[4]
  MFI-Panel: 460
  Nectin-4 (percent positive cells): 97.1%
[5]
  MFI-Panel: 1660
  Nectin-4 (percent positive cells): 99.1%
[6]
  MFI-Panel: 88.3
  Nectin-4 (percent positive cells): 40%
[7]
  MFI-Panel: 15.6
  Nectin-4 (percent positive cells): 1.85%
[8]
  MFI-Panel: 128
  Nectin-4 (percent positive cells): 51.9%
[9]
  MFI-Panel: 803
  Nectin-4 (percent positive cells): 92.4%
[10]
  MFI-Panel: 1810
  Nectin-4 (percent positive cells): 99%
[11]
  MFI-Panel: 361
  Nectin-4 (percent positive cells): 90.1%
[12]
  MFI-Panel: 91.3
  Nectin-4 (percent positive cells): 0.21%
[13]
  MFI-Panel: 21.6
  Nectin-4 (percent positive cells): 1.07%
[14]
  MFI-Panel: 134
  Nectin-4 (percent positive cells): 1.53%
[15]
  MFI-Panel: 2320
  Nectin-4 (percent positive cells): 99%

## PE isotype control IgG2b (R&D, catalog IC0041P) (antibody)
[16]
  MFI-Isotype: 20.5
[17]
  MFI-Isotype: 134
[18]
  MFI-Isotype: 132
[19]
  MFI-Isotype: 145
[20]
  MFI-Isotype: 184
[21]
  MFI-Isotype: 104
[22]
  MFI-Isotype: 22.9
[23]
  MFI-Isotype: 8.33
[24]
  MFI-Isotype: 20.5
[25]
  MFI-Isotype: 26.5
[26]
  MFI-Isotype: 36.2
[27]
  MFI-Isotype: 14.5
[28]
  MFI-Isotype: 36.2
[29]
  MFI-Isotype: 180
[30]
  MFI-Isotype: 28.9

B1: BCY8784 (peptide)
peptide: {MMAE-PABC′-Cit-Val-Glutaryl-βAla}-[Sar][Sar][Sar][Sar][Sar][Sar][Sar][Sar][Sar][Sar]CP[1Nal][dCya]CM[hArg][Cya]WSTP[Hyp]WC
modifications: linker 11-15-25 via TATA (inferred)
[31]
  Kd: 0.662 nM

B2: BCY8278 (peptide)
peptide: {Ac-βAla}-[Sar][Sar][Sar][Sar][Sar][Sar][Sar][Sar][Sar][Sar]CP[1Nal][dD]CM[hArg][Cya]WSTP[Hyp]WC
modifications: linker 11-15-25 via TATA (inferred)
[31]
  Kd: 1.92 nM

B3: BCY8245 (peptide)
peptide: {MMAE-PABC-Cit-Val-Glutaryl-βAla}-[Sar][Sar][Sar][Sar][Sar][Sar][Sar][Sar][Sar][Sar]CP[1Nal][dD]CM[hArg]DWSTP[Hyp]WC
modifications: linker 11-15-25 via TATA
notes: also called BT8009; MMAE-PABC-Cit-Val-Glutaryl-BCY8234
[32]
  Kd: 5.12 nM

B4: BCY7683 (peptide)
peptide: {MMAE-PABC-Cit-Val-Glutaryl-βAla}-[Sar][Sar][Sar][Sar][Sar]CPF[dD]CM[hArg]NWSWPIWC
modifications: linker 6-10-20 via TATA
notes: also called MMAE-PABC-Cit-Val-Glutaryl-BCY7556
[32]
  Kd: 27.1 nM

B5: BCY7825 (peptide)
peptide: {MMAE-PABC′-Cit-Val-Glutaryl-βAla}-[Sar][Sar][Sar][Sar][Sar][Sar][Sar][Sar][Sar][Sar]CPF[dD]CM[hArg]NWSTPIWC
modifications: linker 11-15-25 via TATA
notes: also called MMAE-PABC-Cit-Val-Glutaryl-BCY7814
[32]
  Kd: 11.6 nM
